Key:
[1] = molecular target: human recombinant FcgammaR receptor CD32aH (human) (UniProt P12318); assay: SPR (ProteOn), Mab captured via anti-human Fc, FcgammaR analyte
[2] = molecular target: human recombinant FcgammaR receptor CD32bF (human) (UniProt P31994); assay: as above

Chain of CAT-2200 wild-type lambda Mab (antibody) (heavy): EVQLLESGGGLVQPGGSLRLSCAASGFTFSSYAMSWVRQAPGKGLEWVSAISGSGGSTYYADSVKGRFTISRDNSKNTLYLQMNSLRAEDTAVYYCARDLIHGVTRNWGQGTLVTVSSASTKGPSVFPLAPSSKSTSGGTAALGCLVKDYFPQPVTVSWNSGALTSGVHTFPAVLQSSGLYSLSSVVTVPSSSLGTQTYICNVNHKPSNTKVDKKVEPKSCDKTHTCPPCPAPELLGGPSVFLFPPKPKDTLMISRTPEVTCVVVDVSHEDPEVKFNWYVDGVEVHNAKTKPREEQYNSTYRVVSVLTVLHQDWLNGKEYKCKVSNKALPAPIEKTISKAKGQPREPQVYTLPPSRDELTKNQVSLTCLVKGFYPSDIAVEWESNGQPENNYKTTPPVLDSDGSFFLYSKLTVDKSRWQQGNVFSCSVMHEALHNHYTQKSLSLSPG
Chain of CAT-2200 wild-type lambda Mab (antibody) (light): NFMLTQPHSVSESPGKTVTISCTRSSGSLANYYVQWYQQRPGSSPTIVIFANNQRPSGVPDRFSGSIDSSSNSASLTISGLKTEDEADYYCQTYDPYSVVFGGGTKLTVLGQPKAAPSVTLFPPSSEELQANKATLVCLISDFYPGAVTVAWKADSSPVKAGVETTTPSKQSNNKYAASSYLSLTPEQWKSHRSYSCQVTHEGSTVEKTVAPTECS
Chain of human recombinant FcgammaR receptor CD32aH (human) (P12318 34-217): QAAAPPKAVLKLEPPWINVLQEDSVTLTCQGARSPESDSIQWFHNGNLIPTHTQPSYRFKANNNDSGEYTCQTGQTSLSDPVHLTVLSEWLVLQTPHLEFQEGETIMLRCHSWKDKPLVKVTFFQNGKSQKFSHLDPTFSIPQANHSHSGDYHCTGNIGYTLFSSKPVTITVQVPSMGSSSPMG

Kd [1]: 0.7 µM | Kd [2]: 2.9 µM
Substance: CAT-2200 wild-type lambda Mab (antibody)

— US20200308270A1
